# Measured values from patent publication US20170320928A1 (WISCONSIN ALUMNI RESEARCH FOUNDATION, published 2017).
# Where two headings read alike, the source gives them in different places. Square brackets hold non-standard residues; d marks the D form. Primed or numbered codes have the meaning given here. Ends that are not written are not given here. ACPC = cyclic β-residue replacing an α-residue; APC = 3-aminopyrrolidine-4-carboxylic acid; ACPC″ = not defined here; APC″ = not defined here; Aib = CC(C)(N)C(=O)O
# B1: SEQ. ID. NO: 13 (peptide)
# peptide: HXEGTFTSDXSXYLEXQAAXEFIXWLVXGRG
# modifications: C-terminal primary amide; non-natural residues are marked only by a key given as a drawing (CHEM-US-00002/00003), positions not readable in the text
# Experiments:
# Experiment in all cases: cell-based or functional assay
# human GLP-1 receptor [1] = biological target: T1, human GLP-1 receptor (human, UniProt P43220 24-463)
# human GLP-1 receptor [2] = biological target: T1, human GLP-1 receptor; remark: listed apart in the source
# human GLP-1 receptor [3] = biological target: T1, human GLP-1 receptor; remark: listed apart in the source
Binder,"EC50 (nM), cAMP production (human GLP-1 receptor [1])","EC50 nM, cAMP production in HEK293 cells (human GLP-1 receptor [2])","Max Response (% GLP-1 max), cAMP production (human GLP-1 receptor [2])","EC50 (nM), cAMP production (human GLP-1 receptor [3])","cAMP production, AVERAGES at M Concentrations: -7 (human GLP-1 receptor [3])","cAMP production, AVERAGES at M Concentrations: -8 (human GLP-1 receptor [3])","cAMP production, AVERAGES at M Concentrations: -9 (human GLP-1 receptor [3])","cAMP production, AVERAGES at M Concentrations: -10 (human GLP-1 receptor [3])","cAMP production, AVERAGES at M Concentrations: -11 (human GLP-1 receptor [3])","cAMP production, AVERAGES at M Concentrations: -12 (human GLP-1 receptor [3])","cAMP production, AVERAGES at M Concentrations: -13 (human GLP-1 receptor [3])"
B1,> 100 nM,,,,,,,,,,
H[Aib]EGTFTSD[Aib]S[ACPC]YLE[ACPC]QAA[ACPC]EFI[ACPC]WLV[APC]GRG-NH2 [α/β-Peptide SEQ. ID. NO: 7],,3.2 nM,88 % GLP-1 max,3.2 nM,88.3,63,35,4.47,3.5,2.81,3.83
HAEGTFT[ACPC″]DVS[ACPC″]YLE[ACPC″]QAA[ACPC″]EFI[ACPC″]WLV[APC″]GRG-NH2 (reading uncertain) [α/β-peptide SEQ. ID. NO: 6],,> 100 nM,,,100,99.2,42.8,18,,5.69,5.69
